The values that follow come from US20060078550.

In this data set the target is human prothrombin, P00734.

B1: recombinant His-tagged porcine fgl2 protein generated by pfgl2bv infection of insect cells (protein)
chain: MKLKLSNWCWLSSAVLAAYGFLVVANNETEEIKDEAAKDACPVRLESRGKCEEVGGCPYQVNLPPLTLQLPKQFGRIEEVFKEVQNLKEIVNSLKKTCQDCRLQADDNRDPGRNGLLSPGTGAPGEADDSRVRELENEVNKLSSDLKNAKEEIDGLQGRLEKLSLVNMNNIENYVDNKVANLTFAVNSLDGKCSSRCPSQEQIQSRPVQHLIYKDCSEYYTIGKRSSEIYRVTPDPKNSSFEVYCDMETMGGGWTVLQARLDGSTNFTRTWRDYKVGFGNLRREFWLGNDKIHLLTKSKDMILRIDLEDFNGIKLYALYDHFYVANEFLKYRLHIGNYNGTAGDALRFSKHYNHDMKYFTTPDRDNDRYPSGNCGLYYSSGWWFDACLSANLNGKYYNQKYRGVRNGIFWGTWPGISEAQPGGYRSSFKEAKMMIRPKYFKP
For the protein B1, the “thrombin activity (chromogenic substrate Chromozym TH, change in OD 405 nm over time)” value was “A significant level of thrombin activity was generated by pfgl2bv-infected cell lysates in contrast to wild-type baculovirus-infected and uninfected controls”.
